Patent publication US20230226096A1 (Orna Therapeutics, Inc., priority 2020, published 2023)

System: HEK293 cells
Format: cell-based, human
Details: luminescence from secreted Gluc in supernatant 24 hours after transfection of HEK293 cells; circular RNA encoding Gluc with the named IRES (UTR truncated to 675 nt)

Molecule	Expression
Phacovirus Pf-CHK1 (nucleic acid) DNA: GTGTGTCATTTCTCCCCTCCCCCTCCCAAACCTTTTCCCCCTCTAATCGGATTGATTAACCCGGTTAAAGATGATTAATGGTTTGTGAGTTGATATGATGGCCCGGCATTGAATCCGGGAATTCTTAAGTAATGGAATTGCATCCAATATGAAAGTGAGTGTGGCAAGCTCACAAGTAGTACTTGGCTCTGCCCATTATTTGAGGACCAACTCTTCTTGACTACAATGTGTTTAAAGTAAACTGGACCACATTGTGTATCCAGACAACTCCATTTGATAATGTACGCTGGAAACGTTTTCAGTGCATAGGGTCCTAAAGTGGTGCTGAAATATTGCAAGCTCAATGGGATACTGAACGCTGAAAACCGCCGCTGTTATCATATGGGCCCCTAGTGGGTAAATGTTGGCTTTAGGCATATACTGCTTGGGAATGCAGTACTGGTTGTAGACAGGGTGATAGCCTACCGGCTGGCGTAGTTGAGTTGGTATAGCCAGTTGATTGCCAT	5.87E+06
EV K (nucleic acid, Enterovirus K) DNA: TCAGCCTGACGCAAGTGCCTCCATTGGAGTCTCTCCAAGCCCTCCGGGGCTTGGAGGGCGCCGACCCCCTGCCTAGGGGGAGCCCACGACACGGCTGGAGTCCATTGGCACACCGCAGCCACGATTCAAGCCAGAATTGAAAGCGGGAAGCACTTCTGTCTCCCCGGTGTGGATCATACGCTGTACCCACGGCGAAAAGTGAAGCATCGTTACCCGACTCGGTACTTCGAGAAGCCCAGTACAGTTGTGGATCTCTGCAGGGTATACGCTCAGCGTGACCCCTACGTAGTTCCTTGAGATGGCTGAGAGAACACCCCACGGGCGACCGTGTCTCTCGGCGCGTGGCTCAAGGCCGGGCCTTCAGTGGCTCGGTGCCTTGCAGAGTGAAGCCTCCGAACAGCCTATTGAGCTACCGTTTAGCCTCCGCCCTCTTGAATGCGGCTAATCCTAACCATGGAGCGCCCGCCCACAGTCCAGTGGGTAGAGCGTCGTAACGCGCAAGTCCGTGGCGGAACCGACTACTTTAGAGTGGCGTGTTTCCAATTTATCCTTTATAAAGTTGCTTATGGTGACACCACAAGAGATCCACGATTTCTTGTTTCTTATCACTGAGACACAAGTCATATTCATCAATCTTTATTGCGGAATTAACTTGGTGCGTCCAAACACATCAGC	7.52E+07
HRVB27 (nucleic acid, listed as Rhinovirus sp.) DNA: TTAAAACAGCGGATGGGTATCCCACCATCCGACCCACAGGGTGTAGTGCTCTGGTATTTTGTACCTTTGCACGCCTGTTTCCCCATTGTACCCCTCCTTAAATTTCCTCCCCAAGTAACGTTAGAAGTTTAAGGAAACAAATGTACAATAGGAAGCATCACATCCAGTGGTGTTATGTACAAGCACTTCTGTTTCCCCGGAGCGAGGTATAAGTGGTACCCACCGCCGAAAGCCTTTAACCGTTATCCGCCAATCAACTACGTAATGGCTAGTATTACCATGTTTGTGACTTGGTGTTCGATCAGGTGGTTCCCCCCACTAGTTTGGTCGATGAGGCTAGGAACTCCCCACGGGTGACCGTGTCCTAGCCTGCGTGGCGGCCAACCCAGCTTTTGCTGGGACGCCTTTTTACAGACATGGTGTGAAGACCTGCATGTGCTTGATTGTGAGTCCTCCGGCCCCTGAATGCGGCTAACCTTAACCCCGGAGCCTTGCAACATAATCCAATGTTGTTGAGGTCGTAATGAGTAATTCTGGGATGGGACCGACTACTTTGGGTGTCCGTGTTTCCTTTTATTCTTTATATTGTCTTATGGTCACAGCATATATAGCATATATACTGTGATC	2.04E+08
HRVC3 QPM (nucleic acid, listed as Rhinovirus sp.) DNA: TTAAAGCTGGATCATGGTTGTTCCCACCATGATTACCCACGCGGTGCAGTGGTCTTGTATTACGGTACATTTCCATACCAGTTTTATACACCCCACCCCGAAACTCATAGAAGTTTGTACACAATGACCAATAGGTGGTGGCCATCCAGGTCGCTAATGGTCAAGCACTTCTGTTTCCCCGGCACCCTTGTATACGCTTCACCCGAGGCGAAAAATGAGGTTGTCGTTATCCGCAAAGTGCCTACGAAAAGCCTAGTAACACTTTGAAAACCCATGGTTGGTCGCTCAGCTGTTTACCCAACAGTAGACCTGGCAGATGAGGCTAGACATTCCCCACCAGCGATGGTGGTCTAGCCTGCGTGGCTGCCTGCACACCCTGCCGGGTGTGAAGCCAGAAAGTGGACAAGGTGTGAAGAGCCTATTGTGCTCACTTTGAGTCCTCCGGCCCCTGAATGTGGCTAACCCTAACCCCGTAGCTGTTGCATGTAACCCAACATGTATGCAGTCGTAATGGGCAACTATGGGATGGGACCAACTACTTTGGGTGTCCGTGTTTCCTGTTTTACTTTTTCATTGCTTATGGTGACAATTGTATCTGATACACTTGTTACC	1.64E+07
Boosepivirus A (nucleic acid, Boosepivirus A) DNA: TTGAAAGACCTCGGCATATATCGTTGTCACAACGGTATATGTCGAGATCTTTCTCCCCACCCCCTCCAATTCCCTTTTCCCCCTCTTGCAACTTAGAAGTTTGTACACACAGGGCAATAGGATACGTGATCCAGCCAGGACACGTGAGCTCAAGCACTTCTGTTTCCCCGTCCCCTTCACGTACTACGGGAATGTTAGTAATTTGTGTGCACTTTAGTAAGGTTGATCCGGGATTAACCCCAAATCCCAGAAACTGGTGATGAGCGTTACCACCCCCGCCGGGCGACCGGAAGGTTTCGCTGCGTTGGCACCAGGGCTTCGGCACCAGAAAAAGGTAAAGCAAATGAAGGCGCTACTGTGCTACGAGAAGTTTCCTCCAGGCCCCTGAATGCGGCTAATCCTAACCAGTGATCCACCGGTGCAAAACCATGTACTAGGTGGTCGTAACGCGCAAGTCGCTGGCGGAACCGACTACTTTGGGTGTCCTGTGTTTCCATATTTTATTTTATTCAATTTTATGGTGACAAGAGTAAAGAGATACAGATTTGCAGCC	7.07E+07
HRVA73 (nucleic acid, listed as Rhinovirus sp.) DNA: TTAAAACTGGGTTTGGGTTGTTCCCACCCAAACCACCCACGCGGTGTTGTACACTGTTATTCCGGTAACCTTGTACGCCAGTTTTATATCCCTTCCCCCCCTTGTAACTTAGAAGACATGCGAATCGACCAATAGCAGGCAATCAACCAGATTGTCACCGGTCAAGCACTTCTGTTTCCCCGGCTCTCGTTGATATGCTCCAACAGGGCAAAAACAATTGGAGTCGTTACCCGCAAGATGCCTACGCAAAACCTAGTAGCATCTTCGAAGATTTTTGGTTGGTCGCTCAGTTGCTACCCCAGCAATAGACCTGGCAGATGAGGCTAGAAATACCCCACTGGTGACAGTGTTCTAGCCTGCGTGGCTGCCTGCACACCCACACGGGTGTGAAGCCAAAGATTGGACAAGGTGTGAAGAGTCACGTGTGCTCATCTTGAGTCCTCCGGCCCCTGAATGCGGCTAACCTTAACCCCGTAGCCATTGCTCGCAATCCAGCGAGTATATGGTCGTAATGAGTAATTACGGGATGGGACCGACTACTTTGGGTGTCCGTGTTTCACTTTTTACTTATCAATTTGCTTATGGTGACAATATATATAGATATATATTGACACC	1.08E+08
Felipivirus 127F (nucleic acid, listed as Felipivirus sp.) DNA: GATGTCGGATGACGGCTGGCCACCGGGGAAAAACGGCAAATGTGCACCACCTCTGCAACCCACGCCGACCACGTTTAACCATGGCGTTAGTAGGAGTGGACCACTGCAGTGGGCTCTGGTGTGCGACAGTCAGTGGTAGAGTAGACAGTCCTGACTGGGCAATGGGACCGCGTTGCGTATCCCTAGGTGGCATCGAGATTCCTCTGCTACCCACCAGCGTGGACTCCTATGGGGGGGGCCCCATAGGCTAGGTCTATACTGCCTGATAGGGTCGCGGCTGGTCGACCACTGACTGTATAACCAGTTGTAACTCACT	8.92E+06
Parabovirus A3 (nucleic acid, listed as Parabovirus sp.) DNA: ACCGTTACGCACCACTCAGTTGGTGTTTGGTGGCACCAATGATGGAACAAAAGGCTACACCACTTGGGCTACGGCCCGCGCCACCTTGTGGCGCAAAGACATTAGAAGAATAGCATACCGCCCACTAGGGCCCTGCAGCCAGCAGGGTAACGGGCAAGCACTTCTGTCTCCCCGGTAGAACGGTATAGGCTGTACCCACGGCCGAAAACTGAACTATCGTTACCCGACTCCGTACTTCGCAAAGCTTAGTAGGAAACTGGAAAGTTCGAGTTATTGACCCGGAGTGTTCCCCCCACTCCAGAAACGCGTGATGAGGGTTGCCACCCCGACCATGGCGACATGGTGGGCATCCCTGCGCTGGCACGCGGCCTCTAAGAGGATAACTCGCTCCTACTGGTAACCGAAGAGCCCCGTGAGCTACGGTTTATTCCTCCGCCTCCCTGAATGCGGCTAATCCTAACCCATGAGCAGTTGCCATAGATCCATATGGTGGACTGTCGTAACGCGTAAGTTGTGGGCGGAACCGACTACTTTGGGATGGCGTGTTTCCTTGTTTTCTCCATTTGTTGTTGTATGGTGACAAGTTATAGATCTCGATCTATAGCGTTTCTTGAGAGATTTCCAAACATTTATTCAAGTCGTACAATTCTTGTGTTTAAGCAGTACAGTGTAAGG	2.44E+08
EV L (nucleic acid, Enterovirus L) DNA: ACATGGGCCAGCCCACCACACCCACTGGGTGTAGTAGTCTGGTTCTATGGAACCTTTCTACGCCTCTTTTGCTTCCCTCCCCCATTTCTCCTTCGATTGCTCCACCTGTGATCTTTGCAACTTAGAAGAAATAATGAACCCGCACAATAGCGGGCGCTGAGCCACAGCGTCAATGTGCAAGCACTTCTGTTTCCCCGGAATGGGCCCATAGGCTGTACCCACGGCTGAAAGGGACCGGCCCGTTACCCGCCTTGGTACTGCGAGAATGTTAGTAACTCCCTCGATAGCTTTAGGCGTTACGCTCAGCCCTTTGAGCCCGAAGGGTAGTTCGGGTCGATGAGGCTCGTCATTCCCCACTGGCGACAGTGTGACTTGCCTGCGTTGGCGGCCCGGGGTGGGGGGCAACCCCCATCCACGCCTACTGAAGGACAGGGTGTGAAGGCGCTATTGCGCTACTAAGGAGTCCTCCGGCCCCTGAATGCGGCTAACCCGAACCCCGAGCCCACGGTGGTAAACCCGCCACAAGTGGGTCGTAATGAGTAATTTGGGGCAGGGACCGACTACTTTGGGTGTCCGTGTTTCCTGTTTTTCCATACGATGGCTGCTTATGGTGACAACCATAAGCAATTGGATTGGCCATCCGGTGTTCATATTGCGAAT	6.49E+07
Boosepivirus B (nucleic acid, Boosepivirus B) DNA: TTTTCTCCCCTCCCCCTCCAACTACCTTTTCCCCCTCTTGTAACGCTAGAAGTTTGTGCAAACCGCCTGTAGGGTACTGCAATCCAGCAGTGCATAGGCTAAGCTTTTCTTGTTACCCCACCCCACATTATACTGAGGAGGATTGTGAAATTGTGTTAGTATGGGTTAGTAGCGGTGACCCGGGTAACCCCAACCCAGAAACTCACGGATGAGATGAACAGGACCCCACATGGTAACGTGTGTGTTCGTCTGCCCCGCAAGGTGAGGCCGTGAGAGCTTTGCACGCGAAAACCTTGAAAACCCAAAAGTACCTTGAGCTCTTCGCTATTTTGTGTTTCCTCCAGGACCCTGAATGCGGCTAAACCTAACCCGCGATCCGCACGTAGCAACCCAGCTAGAGTGTGGTCGTAATGCGCAAGTTGCGGGCGGTACCGACTACTTTGGTGTTCCTGTGTTTCCTTTATTTTATTTTGAATTTTTATGGTGACAACAGCTAGAAAATAAGAGTGAAC	1.17E+08
